Test results published in article PMC10751729 (Protein Science : A Publication of the Protein Society, 2024).

Molecular target: GST‐LC3B (human, UniProt Q9GZQ8 1-120)
Experiment: AlphaScreen or HTRF

SGGDDDWTHLS [LIRtide]
IC50: 1700 nM
